Experimental data from patent US20250304677A1 (VIB VZW, published 2025).

B1: VHH 2HFO42 (family 3) (VHH)
VHH: QVQLQESGGGLVQAGGSLRLSCAASGSGFSGMIMGWYRQVPGKQRELVATVTSHGTTNYADSVKGRFTISRDNAKNTVLLQMNSLKPEDTAVYYCNAHFPGIYWGKGTQVTVSS
notes: also called 2HF042; Nb42
B2: VHH 3MFR60 (family 10) (VHH)
VHH: QVQLQESGGGLVQAGGSLRVSCAASGIIFSMNGMGWFRQAPGKQRELVASITSGGSTKYADSVKGRFTISRDNAKNTVYLQMNSLKPEDTAVYYCNIQFGSRWSTYWGQGTQVTVSS
B3: VHH 2HFO19 (family 1) (VHH)
VHH: QVQLQESGGGLVQPGGSLRVSCAASGFPFSTVYMSWVRQAPGKGLEWVSGINNDGGVIDYADSVKGRFTISRDNAKNTLYLQLNSLKPEDTALYFCARGRSFVATLSSSLRGQGTQVTVSS
notes: also called Nb19

These binders were tested against T1, human FRβ with R135 replaced by glutamine (human, UniProt P14207 17-230) (assay: flow cytometry on transiently transfected HEK293T cells, 200 nM VHH, mouse anti-His then anti-mouse-PE (B575-A)).
T1 construct: The entry is the mutant itself; also called hFRβ R135Q
T1 sequence (P14207 17-230 R135Q limits assumed): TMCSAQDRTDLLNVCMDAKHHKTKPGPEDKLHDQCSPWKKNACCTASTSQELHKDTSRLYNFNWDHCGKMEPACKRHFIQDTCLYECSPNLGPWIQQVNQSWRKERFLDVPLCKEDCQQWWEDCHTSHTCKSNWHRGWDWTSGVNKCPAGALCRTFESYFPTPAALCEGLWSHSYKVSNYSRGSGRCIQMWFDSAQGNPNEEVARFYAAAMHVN
Description: FIGS. 2A-2C illustrates the epitope mapping of anti-FOLR1 VHHs on human FOLR1/2 chimeras. ^{∘}FIG. 2A) To narrow down the epitope of the anti-folate receptor alpha ^{∘}FOLR1) VHHs, chimeric constructs were generated by exchanging a sequence block in human FOLR1 ^{∘}hFOLR1) by the corresponding human folate receptor beta ^{∘}hFOLR2) sequence, since the VHHs are able to bind both hFOLR1 and mouse FOLR1 ^{∘}mFOLR1; SEQ ID No.97), but not hFOLR2. These regions are indicated by the green arrows. Chimera 1 SEQ ID No. 67) and 7 ^{∘}Ch7; SEQ ID No. 73) also contain an additional residue change at a separate location. […] HEK293T cells were transfected with hFOLR1, hFOLR2, one of the hFOLR1/2 chimeric constructs ^{∘}FIG. 2B) or single residue mutants ^{∘}FIG. 2C). Binding of VHHs 2HFO19, 2HFO42, 3MFR60, and a mouse anti-FOLR1 monoclonal antibody ^{∘}mAb) was detected using a mouse anti-His tag antibody for the VHHs followed by an anti-mouse-phycoerythrin antibody. All VHHs were tested at a concentration of 200 nM and untransfected cells were used as a negative control. The colors used for the VHHs represent the different CDR3 families; blue: family 1, green: family 3, grey: family 10.
To further narrow down which specific residues might play a role, single residues of human FRα in the chimera 4 region that are not conserved between FRα and FRβ were mutated to their human FRβ counterpart. While all VHHs retained binding to human FRα E140Q SEQ ID No. 77), R147H ^{∘}SEQ ID No. 79), and Y150H ^{∘}SEQ ID No. 80) ^{∘}data not shown), binding was completely abolished when the Q141R mutation ^{∘}SEQ ID No. 78) was introduced ^{∘}FIG. 2C). To verify the role of this residue in the binding of the VHHs, the R135 residue in human FRβ was replaced by glutamine ^{∘}SEQ ID No. 81) and binding of the VHHs was analyzed. […] In addition to having ^{∘}partially) overlapping epitopes, the VHHs thus all require residue Q141 for binding.

Binding result, binds:
B1
B2
B3

The binders below were run against human FOLR1/2 chimera 3 (human, UniProt P15328 25-234) (assay: flow cytometry, transfected HEK293T cells).
human FOLR1/2 chimera 3, sequence (P15328 other isoform, or with tags, fused parts or gaps mutant limits assumed): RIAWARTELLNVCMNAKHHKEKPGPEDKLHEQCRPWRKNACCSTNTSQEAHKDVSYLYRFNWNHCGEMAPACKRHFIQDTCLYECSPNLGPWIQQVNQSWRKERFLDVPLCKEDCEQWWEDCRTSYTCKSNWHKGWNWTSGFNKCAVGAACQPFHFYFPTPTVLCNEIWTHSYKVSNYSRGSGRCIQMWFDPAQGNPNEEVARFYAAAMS
Procedure: (§1) Chimera 1 SEQ ID No. 67) and 7 ^{∘}Ch7; SEQ ID No. 73) also contain an additional residue change at a separate location. […] HEK293T cells were transfected with hFOLR1, hFOLR2, one of the hFOLR1/2 chimeric constructs ^{∘}FIG. 2B) or single residue mutants ^{∘}FIG. 2C). Binding of VHHs 2HFO19, 2HFO42, 3MFR60, and a mouse anti-FOLR1 monoclonal antibody ^{∘}mAb) was detected using a mouse anti-His tag antibody for the VHHs followed by an anti-mouse-phycoerythrin antibody. All VHHs were tested at a concentration of 200 nM and untransfected cells were used as a negative control. The colors used for the VHHs represent the different CDR3 families; blue: family 1, green: family 3, grey: family 10.
(§2) To identify the exact region in which the VHHs bind to FRα, epitope mapping experiments were performed. Since the VHHs are able to bind human FRα, but not FRβ, we generated seven human FOLR1/2 chimeric constructs where regions of human FOLR1 were replaced by the corresponding human FOLR2 ^{∘}FRβ) regions ^{∘}FIG. 2A): chimera 1 SEQ ID No. 67), chimera 2 ^{∘}SEQ ID No. 68), chimera 3 ^{∘}SEQ ID No. 69), chimera 4 ^{∘}SEQ ID No. 70), chimera 5 ^{∘}SEQ ID No. 71), chimera 6 ^{∘}SEQ ID No. 72) and chimera 7 ^{∘}SEQ ID No. 73). Three additional chimera 1 constructs were made: chimera 1a ^{∘}replacing fragment 31-40; SEQ ID No. 74), chimera 1b ^{∘}replacing fragment 41-50; SEQ ID No. 75) and chimera 1c ^{∘}replacing fragment 51-64; SEQ ID NO. 76). The constructs were transiently transfected into HEK293T cells and dose-dependent binding of the VHHs to the wild-types FRα and FRβ ^{∘}WTs) or the chimeric constructs was assessed via flow cytometry via detection of the tag ^{∘}FIG. 2B). […] Different anti-FRα VHHs were able to bind to cell-expressed FRα-FRβ chimeras to a similar level as WT FRα, with the exception of chimera 4 ^{∘}SEQ ID No. 70) where the binding was completely abolished for all VHHs.

Binding result, binds:
B1
B2
B3

The binders below were run against T2, human FOLR1/2 chimera 1a (replacing fragment 31-40) (human, UniProt P15328 25-234) (assay: flow cytometry, transfected HEK293T cells).
T2 construct: Transiently expressed on HEK293T cells
T2 sequence (P15328 other isoform, or with tags, fused parts or gaps mutant limits assumed): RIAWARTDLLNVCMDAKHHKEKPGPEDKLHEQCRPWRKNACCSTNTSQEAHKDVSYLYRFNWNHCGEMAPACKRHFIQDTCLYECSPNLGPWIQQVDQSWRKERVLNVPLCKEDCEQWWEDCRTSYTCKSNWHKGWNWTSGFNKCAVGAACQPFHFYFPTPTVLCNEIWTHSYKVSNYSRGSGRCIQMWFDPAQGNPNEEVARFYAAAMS
Procedure: as §1, §2

Binding result, binds:
B1
B2
B3

The binders below were run against human FOLR1/2 chimera 5 (human, UniProt P15328 25-234) (assay: flow cytometry, transfected HEK293T cells).
human FOLR1/2 chimera 5, sequence (P15328 other isoform, or with tags, fused parts or gaps mutant limits assumed): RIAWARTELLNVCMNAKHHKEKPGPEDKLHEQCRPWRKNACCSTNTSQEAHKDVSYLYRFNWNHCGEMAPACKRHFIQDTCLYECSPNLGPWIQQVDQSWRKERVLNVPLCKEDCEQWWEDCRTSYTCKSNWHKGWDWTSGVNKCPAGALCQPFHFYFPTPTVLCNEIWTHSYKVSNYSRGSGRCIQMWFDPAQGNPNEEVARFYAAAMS
Procedure: as §1, §2

Binding result, binds:
B1
B2
B3

The binders below were run against human FOLR1/2 chimera 6 (human, UniProt P15328 25-234) (assay: flow cytometry, transfected HEK293T cells).
human FOLR1/2 chimera 6, sequence (P15328 other isoform, or with tags, fused parts or gaps mutant limits assumed): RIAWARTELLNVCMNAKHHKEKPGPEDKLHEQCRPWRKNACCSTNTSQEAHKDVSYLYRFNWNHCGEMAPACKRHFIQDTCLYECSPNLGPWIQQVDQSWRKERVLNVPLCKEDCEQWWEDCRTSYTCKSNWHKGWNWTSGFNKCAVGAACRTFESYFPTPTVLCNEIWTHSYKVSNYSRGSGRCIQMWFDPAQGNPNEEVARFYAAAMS
Procedure: as §1, §2

Binding result, binds:
B1
B2
B3

What follows are binders tested against human FOLR1/2 chimera 2 (human, UniProt P15328 25-234) (assay: flow cytometry, transfected HEK293T cells).
human FOLR1/2 chimera 2, sequence (P15328 other isoform, or with tags, fused parts or gaps mutant limits assumed): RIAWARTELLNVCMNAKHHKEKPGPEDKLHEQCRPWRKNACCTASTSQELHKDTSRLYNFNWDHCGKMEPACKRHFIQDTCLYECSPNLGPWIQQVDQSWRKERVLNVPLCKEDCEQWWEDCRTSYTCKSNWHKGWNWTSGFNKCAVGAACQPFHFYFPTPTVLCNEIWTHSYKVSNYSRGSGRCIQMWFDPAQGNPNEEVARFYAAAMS
Procedure: as §1, §2

Binding result, binds:
B1
B2
B3

The binders below were run against T3, human FOLR1/2 chimera 1b (replacing fragment 41-50) (human, UniProt P15328 25-234) (assay: flow cytometry, transfected HEK293T cells).
T3 construct: Transiently expressed on HEK293T cells
T3 sequence (P15328 other isoform, or with tags, fused parts or gaps mutant limits assumed): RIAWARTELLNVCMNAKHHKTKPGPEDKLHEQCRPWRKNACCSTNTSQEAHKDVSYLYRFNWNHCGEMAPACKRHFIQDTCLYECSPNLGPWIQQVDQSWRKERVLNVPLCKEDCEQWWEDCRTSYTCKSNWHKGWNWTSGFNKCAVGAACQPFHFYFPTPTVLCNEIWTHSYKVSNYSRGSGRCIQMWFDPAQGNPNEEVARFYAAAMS
Procedure: as §1, §2

Binding result, binds:
B1
B2
B3

Each binder was assayed against T4, human FOLR1/2 chimera 1 (human, UniProt P15328 25-234) (assay: flow cytometry, transfected HEK293T cells).
T4 construct: on transfected HEK293T cells
T4 sequence (P15328 other isoform, or with tags, fused parts or gaps mutant limits assumed): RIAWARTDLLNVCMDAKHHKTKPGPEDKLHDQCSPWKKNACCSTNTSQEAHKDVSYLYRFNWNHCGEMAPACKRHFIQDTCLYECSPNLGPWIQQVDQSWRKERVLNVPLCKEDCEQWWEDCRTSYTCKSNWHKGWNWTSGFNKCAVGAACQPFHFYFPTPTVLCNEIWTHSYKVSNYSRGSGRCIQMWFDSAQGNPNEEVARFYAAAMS
Procedure: as §1, §2

Binding result, binds:
B1
B2
B3

The binders below were run against T5, human FOLR1/2 chimera 7 (human, UniProt P15328 25-234) (assay: flow cytometry, transfected HEK293T cells).
T5 construct: also called Ch7
T5 sequence (P15328 other isoform, or with tags, fused parts or gaps mutant limits assumed): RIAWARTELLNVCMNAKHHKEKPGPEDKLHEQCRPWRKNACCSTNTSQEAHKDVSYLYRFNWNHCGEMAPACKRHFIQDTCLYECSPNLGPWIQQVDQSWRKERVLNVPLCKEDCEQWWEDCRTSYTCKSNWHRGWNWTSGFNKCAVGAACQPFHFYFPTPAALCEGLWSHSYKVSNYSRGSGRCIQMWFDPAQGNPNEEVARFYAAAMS
Procedure: as §1, §2

Binding result, binds:
B1
B2
B3
